The record followed here is patent US7847064B2, “Methods and compositions for regulating gene expression in plant cells” (Donald Danforth Plant Science Center, priority 2004, dated 2010).

The test system of test [1] is pBII-48Ca::GUS. Put plainly: Transactivation of pBII-48Ca::GUS by RF2a and RF2a mutants in BY-2 protoplasts. To be noted: co-transfected with pBII-48Ca::GUS, 24 hours after electroporation, normalized with GFP. In kind it is cell-based, tobacco. As for the experimental part: The relative activity of RF2a and the RF2a mutants (described in Example 8) was then measured. First, a chimeric promoter was developed with a single copy of the Box II element fused to the 5′ end of a minimal CaMV 35S promoter comprising nucleotides −48 to +8 (SEQ ID NO:66). The chimeric promoter was ligated to the uidA coding sequence to create the reporter pBII-48Ca::GUS.
To analyze the function of the several domains of RF2a, effectors were created by inserting coding sequences of RF2a or the mutants of RF2a (described in Example 8) downstream of the enhanced CaMV 35S promoter in the pMON999 vector (a gift from Monsanto Company, St. Louis, Mo.). The resultant constructs, p35S::RF2a, p35S::RF2a-ΔP, p35S::RF2a-ΔQ, p35S::RF2a-ΔPΔA, p35S::RF2a-ΔPΔQ and p35S::RF2a-3Δ, were co-transfected into BY-2 protoplasts with pBII-48Ca::GUS (FIG. 17(A)). Plasmid pCat-GFP, in which the GFP gene was driven by CaMV 35S promoter, was co-introduced to serve as an internal control. The following describes, in greater detail, the construction of these vectors and the methods employed in transfecting the same into BY-2 protoplasts.
Plasmids for protoplast transfection—The coding sequences for mutants of RF2a were released from pET28a-derived plasmids and cloned into the plant expression vector pMON999 (a gift from Monsanto Company, St. Louis, Mo.) to place each gene downstream of an enhanced CaMV 35S promoter, followed by a nopaline synthase terminator sequence. The resulting effector constructs were named p35S::RF2a, p35S::RF2a-ΔP, p35S::RF2a-ΔQ, p35S::RF2a-ΔPΔA, p35S::RF2a-ΔPΔQ and p35S::RF2a-3Δ. The reporter gene construct, pBII-48Ca::GUS, was built using PCR to introduce the Box II element into a minimal CaMV 35S promoter comprising nucleotides −48 to +8 with primers BII-48Ca 5′ (SEQ ID NO:53) (which contained the Box II element) and GUS 3′ (SEQ ID NO:36) using a p35S:GUS plasmid as template. The PCR product was restricted with HindIII and NcoI, and the resulting fragment was inserted into p35S::GUS to replace the original 35S promoter.
Transfection of tobacco BY-2 protoplasts—The protoplasts were isolated from tobacco cell line BY-2 as described by Watanabe et al. (1987). Approximately one million protoplasts were transfected by electroporation with 20 μg of effector construct DNA, 15 μg of herring sperm DNA, 2.5 μg of reporter gene construct DNA, and 15 μg of pCat-GFP DNA. In samples with reporter gene alone, the total amount of DNA was adjusted by adding 20 μg of herring sperm carrier DNA. The electroporation parameters used were 300 V and 250 microfarads with the Bio-Rad electroporation system (Bio-Rad Laboratories, Hercules, Calif.). Protoplast samples were cultured in Murashige and Skoog medium with 0.4 M mannitol, pH 5.8, at 28° C. The protoplasts were collected 24 hours after electroporation.

Test [2] concerns Box IIm1 element. Put plainly: Electrophoretic mobility shift assay. In kind it is binding. As to conditions: 100 ng purified protein, 32P-labeled Box IIm1 DNA probe. As for the experimental part: The purified mutant proteins were then analyzed by SDS-PAGE to confirm that each protein was its expected size (FIG. 16(B)). To confirm that each of the mutant proteins bind to the DNA target, i.e., the Box II element and/or its operational derivatives, gel mobility shift assays were carried out with the purified recombinant proteins (FIG. 16(C)). The electrophoretic mobility shift assays were carried out essentially as described in Yin and Beachy (1995). 100 ng of proteins purified from the transformed E. coli were incubated with ^32P-labeled Box IIm1 DNA probe followed by electrophoresis in a 5% acrylamide gel (Yin et al., 1997) (FIG. 16(C)).
A general note: A gel shift assay detects complexes by their altered migration in electrophoresis.

Test [3] concerns Nicotiana tabacum cv. Xanthi NN. Description: Phenotype of transgenic tobacco plants overexpressing RF2a or RF2a mutants. In kind it is in vivo. As to conditions: for phenotype of transgenic tobacco plants: CaMV 35S promoter driven, T1 generation, greenhouse; for cross-sections of the stem of transgenic plants: two-month old tobacco, toluidine blue O. The source says: (Yin et al., 1997; Petruccelli et al., 2001). […] Fifteen or more independent transgenic tobacco lines were developed with the constructs described below through Agrobacterium-mediated transformation.
Plasmids for Agrobacterium-mediated transformation—The fusion genes described above relating to the plant expression constructs comprising RF2a deletion mutants were released from pMON999-derived plasmids using NotI (blunted) and cloned into the binary vector pGA-E::GUS (Petruccelli et al., 2001) using the blunt HindIII site (downstream of a CaMV 35S promoter sequence). The final plasmids were named pGA-E::GUS/P-35S::ΔP, pGA-E::GUS/P-35S::ΔQ, pGA-E::GUS/P-35S::ΔPΔA and pGA-E::GUS/P-35S::ΔPΔQ. A plasmid encoding full-length RF2a, p35S::RF2a, was also constructed using the methods described herein.
Tobacco transformation—the plasmids described above were introduced into Agrobacterium tumefaciens strain LBA4404 and used for tobacco transformation. Leaf discs from Nicotiana tabacum cv. Xanthi NN were transformed with the various plasmids following the protocol of Horsch et al. (1988). At least 15 independent transgenic lines were produced with each gene construct. Transgenic plants were self-fertilized, and T1 seeds were collected. The T1 seeds were germinated on Murashige and Skoog medium (Murashige and Skoog, 1962) with kanamycin (100 mg/L) selection, and Kan^r seedlings were grown in a greenhouse for observation.
The phenotype caused by 35S::RF2a-ΔPΔA was similar to, but less severe than, the phenotype caused by 35S::RF2a-3Δ. […] (FIG. 19(C)).

B1: RF2a-ΔPΔQ: RF2a mutant, proline- and glutamine-rich domains removed, SEQ ID NO:71 (protein)
chain: MGHRRAHSEILSLPEDLDLCAAGGGDGPSLSDENDEELFSMFLDVEKLNSTCGASSEAEAESSSAAAHGARPKHQHSLSMDESMSIKAEELVGASPGTEGMSSAEAKKAVSAVKLAELALVDPKRAKRIWANRQSAARSKERKMRYIAELERKVQTLQTEATTLSAQLALLQRDTSGLTTENSELKLRLQTMEQQVHLQDALNDTLKSEVQRLKVATGQMANGGGMMMNFGGMPHQ
modifications: This sequence was artificially derived and/or created by the inventors.
Take B1: in test [1], the “activation function (relative GUS activity)” value is listed as “greater than that of full-length RF2a”. In addition, the “binding in gel mobility shift assay” value in test [2] is reported as “bind to the Box IIm1 element”. Besides, the “phenotype of transgenic tobacco plants” value in test [3] is on record as “did not exhibit abnormal phenotypes”.

B2: RF2a-ΔPΔA: RF2a mutant, proline-rich and acidic domains removed, SEQ ID NO:70 (protein)
chain: MSSSAAAHGARPKHQHSLSMDESMSIKAEELVGASPGTEGMSSAEAKKAVSAVKLAELALVDPKRAKRIWANRQSAARSKERKMRYIAELERKVQTLQTEATTLSAQLALLQRDTSGLTTENSELKLRLQTMEQQVHLQDALNDTLKSEVQRLKVATGQMANGGGMMMNFGGMPHQFGGNQQMFQNNQAMQSMLAAHQLQQLQLHPQAQQQQVLHPQHQQQQPLHPLQAQQLQQAARDLKMKSPMGGQSQWGDGKSGSSGN
modifications: This sequence was artificially derived and/or created by the inventors.
Turning to B2, the “activation function (relative GUS activity)” value in test [1] is recorded as “dropped to near basal level”. Further, the “binding in gel mobility shift assay” value in test [2] is “bind to the Box IIm1 element”. Also, the “phenotype of transgenic tobacco plants” value was “severe stunting phenotype” in test [3]; “mild to severe stunting with curved leaves and substantial delay in flowering times” in test [3] (listed as 35S::RF2a-ΔPΔA). Moreover, in test [3] (T1 generation tobacco), the “independent transgenic lines with stunting, curved leaves and delayed flowering” value is on record as 11 of 15. Besides, the “internodal elongation of transgenic plants” value in test [3] (transgenic tobacco) is “strongly repressed”. The “cross-sections of the stem of transgenic plants” value in test [3] was “xylem of stunted plants was not uniformly lignified and that phloem development was altered”.

B3: RF2a-3Δ: RF2a mutant, glutamine-rich, proline-rich and acidic domains removed, SEQ ID NO:72 (protein)
chain: MSSSAAAHGARPKHQHSLSMDESMSIKAEELVGASPGTEGMSSAEAKKAVSAVKLAELALVDPKRAKRIWANRQSAARSKERKMRYIAELERKVQTLQTEATTLSAQLALLQRDTSGLTTENSELKLRLQTMEQQVHLQDALNDTLKSEVQRLKVATGQMANGGGMMMNFGGMPHQ
modifications: This sequence was artificially derived and/or created by the inventors.
For the molecule B3, the “activation function (relative GUS activity)” value in test [1] is reported as “dropped to near basal level”. Besides, the “binding in gel mobility shift assay” value in test [2] is given as “bind to the Box IIm1 element”. In test [3], the “phenotype of transgenic tobacco plants” value was “severe stunting phenotype”; the “cross-sections of the stem of transgenic plants” value is “xylem of stunted plants was not uniformly lignified and that phloem development was altered”.
